Patent US20220204643A1 (published 2022)

Experiments:
[1] = target: T1, phospholipid scramblase 4, transcript variant X4 (human, UniProt Q9NRQ2 1-329); assay: protein array
T1 construct: on protein array; also called PLSCR4
T1 chain: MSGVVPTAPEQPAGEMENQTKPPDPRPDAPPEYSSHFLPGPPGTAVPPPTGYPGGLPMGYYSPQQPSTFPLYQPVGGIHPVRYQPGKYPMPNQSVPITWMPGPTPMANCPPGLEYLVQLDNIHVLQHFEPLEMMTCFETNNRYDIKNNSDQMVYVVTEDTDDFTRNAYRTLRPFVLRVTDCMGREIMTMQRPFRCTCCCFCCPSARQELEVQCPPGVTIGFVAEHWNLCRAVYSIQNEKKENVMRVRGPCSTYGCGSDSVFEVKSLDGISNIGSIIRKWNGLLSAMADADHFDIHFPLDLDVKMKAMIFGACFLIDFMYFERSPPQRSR

[2] = target: T2, TruB pseudouridine synthase family member 1 (human, UniProt Q8WWH5 2-349); assay: protein array
T2 construct: on protein array; also called TRUB1
T2 sequence: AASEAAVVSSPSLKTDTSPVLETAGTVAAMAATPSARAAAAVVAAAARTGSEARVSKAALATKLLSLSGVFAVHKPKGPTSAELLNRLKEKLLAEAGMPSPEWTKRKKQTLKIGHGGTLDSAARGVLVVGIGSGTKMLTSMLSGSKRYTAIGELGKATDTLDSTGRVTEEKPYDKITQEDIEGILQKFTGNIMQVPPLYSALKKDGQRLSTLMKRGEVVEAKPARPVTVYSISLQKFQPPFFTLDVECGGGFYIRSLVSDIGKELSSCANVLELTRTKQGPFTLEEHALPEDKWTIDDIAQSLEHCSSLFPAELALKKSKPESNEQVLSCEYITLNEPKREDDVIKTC

[3] = target: T3, nucleosome assembly protein 1 like 1, transcript variant 1 (human, UniProt P55209 2-388); assay: protein array
T3 construct: on protein array; also called NAP1L1
T3 sequence: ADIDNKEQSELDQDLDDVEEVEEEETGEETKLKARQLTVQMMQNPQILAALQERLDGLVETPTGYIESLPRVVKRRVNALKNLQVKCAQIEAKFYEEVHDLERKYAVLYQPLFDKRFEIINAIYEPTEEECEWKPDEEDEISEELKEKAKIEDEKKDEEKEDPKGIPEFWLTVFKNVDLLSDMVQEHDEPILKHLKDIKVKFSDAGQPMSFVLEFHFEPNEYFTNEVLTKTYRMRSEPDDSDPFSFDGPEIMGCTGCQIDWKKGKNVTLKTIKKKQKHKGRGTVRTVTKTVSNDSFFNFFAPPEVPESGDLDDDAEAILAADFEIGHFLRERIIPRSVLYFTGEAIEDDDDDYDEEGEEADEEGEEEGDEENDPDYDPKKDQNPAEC

[4] = target: T4, nudE neurodevelopment protein 1, transcript variant 1 (human, UniProt Q9NXR1 1-335); assay: protein array
T4 construct: on protein array; also called NDE1
T4 sequence: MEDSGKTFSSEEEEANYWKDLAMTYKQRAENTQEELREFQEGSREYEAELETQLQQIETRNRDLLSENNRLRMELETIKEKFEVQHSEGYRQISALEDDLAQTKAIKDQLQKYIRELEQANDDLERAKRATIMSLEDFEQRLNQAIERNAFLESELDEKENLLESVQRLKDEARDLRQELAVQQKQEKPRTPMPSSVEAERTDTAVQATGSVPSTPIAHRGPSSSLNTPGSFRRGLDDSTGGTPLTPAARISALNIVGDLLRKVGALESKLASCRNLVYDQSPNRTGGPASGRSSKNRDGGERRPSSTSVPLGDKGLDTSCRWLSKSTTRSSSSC

[5] = target: T5, KH RNA binding domain containing, signal transduction associated 2, transcript variant 2 (human, UniProt Q5VWX1 1-349); assay: protein array
T5 construct: on protein array; also called KHDRBS2
T5 sequence: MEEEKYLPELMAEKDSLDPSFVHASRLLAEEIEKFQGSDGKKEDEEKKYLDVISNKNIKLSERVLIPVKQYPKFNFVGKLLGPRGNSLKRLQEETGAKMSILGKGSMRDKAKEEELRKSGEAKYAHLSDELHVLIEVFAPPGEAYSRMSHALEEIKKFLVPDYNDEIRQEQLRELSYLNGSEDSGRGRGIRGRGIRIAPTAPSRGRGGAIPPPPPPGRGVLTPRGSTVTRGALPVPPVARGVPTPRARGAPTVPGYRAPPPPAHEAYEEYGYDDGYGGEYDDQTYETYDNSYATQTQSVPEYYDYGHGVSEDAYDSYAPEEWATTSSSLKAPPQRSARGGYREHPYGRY

LN608403.1_frag = target: T6, LN608403.1_frag (human); assay: protein array
T6 construct: on protein array
T6 chain: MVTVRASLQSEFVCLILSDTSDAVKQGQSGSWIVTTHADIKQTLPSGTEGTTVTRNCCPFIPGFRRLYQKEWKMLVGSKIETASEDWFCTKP

[6] = target: T7, JPX transcript, XIST activator (human); assay: protein array
T7 construct: on protein array
T7 chain: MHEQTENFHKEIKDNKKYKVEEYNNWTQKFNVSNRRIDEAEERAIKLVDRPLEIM

[7] = target: T8, UTP6 small subunit processome component (human, UniProt Q9NYH9 1-597)
T8 sequence: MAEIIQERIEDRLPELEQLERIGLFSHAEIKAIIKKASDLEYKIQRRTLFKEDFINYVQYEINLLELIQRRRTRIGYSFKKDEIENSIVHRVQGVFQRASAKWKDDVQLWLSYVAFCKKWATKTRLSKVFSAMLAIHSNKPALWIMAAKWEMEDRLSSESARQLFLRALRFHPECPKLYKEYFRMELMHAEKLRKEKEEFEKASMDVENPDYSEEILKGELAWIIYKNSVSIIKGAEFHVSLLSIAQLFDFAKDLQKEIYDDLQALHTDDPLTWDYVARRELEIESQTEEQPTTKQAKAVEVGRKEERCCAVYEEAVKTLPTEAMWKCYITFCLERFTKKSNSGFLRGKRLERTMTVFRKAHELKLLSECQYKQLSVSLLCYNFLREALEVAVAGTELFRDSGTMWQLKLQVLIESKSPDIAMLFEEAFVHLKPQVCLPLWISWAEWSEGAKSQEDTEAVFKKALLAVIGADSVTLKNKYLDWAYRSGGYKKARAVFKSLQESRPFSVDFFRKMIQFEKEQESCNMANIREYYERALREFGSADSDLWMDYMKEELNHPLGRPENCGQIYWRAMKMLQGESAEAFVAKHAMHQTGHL

[8] = target: T9, SNAP associated protein, transcript variant 1 (human, UniProt O95295 2-136); assay: protein array
T9 construct: on protein array; also called SNAPIN
T9 sequence: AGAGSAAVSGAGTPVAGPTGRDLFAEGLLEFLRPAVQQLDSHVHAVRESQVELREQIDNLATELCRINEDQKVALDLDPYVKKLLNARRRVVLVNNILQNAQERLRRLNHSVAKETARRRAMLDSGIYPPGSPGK

[9] = target: T10, sorting nexin 33, transcript variant 1 (human, UniProt Q8WV41 1-574); assay: protein array
T10 construct: on protein array; also called SNX33
T10 sequence: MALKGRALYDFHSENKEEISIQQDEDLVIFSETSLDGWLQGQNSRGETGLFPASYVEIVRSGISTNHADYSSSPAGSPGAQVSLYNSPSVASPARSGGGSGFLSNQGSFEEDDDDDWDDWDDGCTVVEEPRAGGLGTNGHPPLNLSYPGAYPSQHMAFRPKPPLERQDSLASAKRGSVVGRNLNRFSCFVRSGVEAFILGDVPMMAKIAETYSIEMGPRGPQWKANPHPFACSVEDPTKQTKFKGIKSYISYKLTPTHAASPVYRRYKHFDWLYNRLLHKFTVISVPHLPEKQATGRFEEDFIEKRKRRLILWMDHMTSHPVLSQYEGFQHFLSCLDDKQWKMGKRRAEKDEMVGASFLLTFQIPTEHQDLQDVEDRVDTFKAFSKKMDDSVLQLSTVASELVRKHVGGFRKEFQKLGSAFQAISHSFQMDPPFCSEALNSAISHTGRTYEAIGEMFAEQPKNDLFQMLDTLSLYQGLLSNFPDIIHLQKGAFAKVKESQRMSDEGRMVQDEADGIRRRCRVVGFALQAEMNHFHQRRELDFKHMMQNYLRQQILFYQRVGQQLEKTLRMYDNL

B1: TCER1003 (antibody, V domains shown)
VH: QITLKESGPTLVKPTQTLTLTCTFSGFSLTTTDVGVGWIRQPPGKALEWLTIIYWDDDERYSPSLKSRLTITKDTSKNQVVLSMTNMDPVDTATYYCARVYSTKWDFDYWGQGTLVTVSS
VL: VSSELTQDPAVSVALGQTVRITCQGDSLRRYYVSWYRQKPGEAPVVVIYGKNNRPSWIPDRLSGSSSGNTASLTITGAQAEDEADYYCCSRDSSGNPWVFGGGTKLTVLG
notes: VH/VL only
B1: binds [1]; binds [2].

B2: TCER1001 (antibody, V domains shown)
VH: EVQLVESGGGLVQPGRSLRLSCAASGFTFDDYAMHWVRQAPGKGLEWVSGISWNSGSIGYADSVKGRFTISRDNAKNSLYLQMNSLRAEDTALYYCAKDLLGFRDQRNYYGMDVWGQGTTVTVSS
VL: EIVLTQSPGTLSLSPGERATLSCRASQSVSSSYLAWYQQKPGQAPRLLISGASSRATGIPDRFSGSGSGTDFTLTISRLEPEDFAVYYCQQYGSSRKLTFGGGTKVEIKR
notes: VH/VL only
B2: binds [3].

B3: TCER1002 (antibody, V domains shown)
VH: QVQLQESGPGLVKPSETLSLSCTVSGASMNNYYWSWIRQSAGKGLEWIGRIYSSGDTDYNPSLKTRVTMSIDTSKNQFSLNLDSVTAADTATYYCARSFYDTLFYFENWGQGTLVTVSS
VL: DIQMTQSPSTLSASVGDRVTITCRASQSISVWLAWYQQKPGKAPKLLIYKASTLEAGVPSRFSGSGSGTEFSLTISGLQPDDFGTYFCQHYDSYPWTFGQGTKVEMK
notes: VH/VL only
B3: binds [4].

B4: TCHO1001 (antibody, V domains shown)
VH: PVHLVQSGAEVKKPGSSVKVSCKLSGGIFSYFAIIWVRQAPGQGLEWMGTIIPIFGTSNYAEKFQDRVAIVADEATSTVYMEVNSLRSEDTAIYFCARDSEVEKSDGYMASTAEYFQLWGQGTLVTVSS
VL: not shown
notes: VH/VL only
B4: binds [5].

B5: TBRE1045 (antibody, V domains shown)
VH: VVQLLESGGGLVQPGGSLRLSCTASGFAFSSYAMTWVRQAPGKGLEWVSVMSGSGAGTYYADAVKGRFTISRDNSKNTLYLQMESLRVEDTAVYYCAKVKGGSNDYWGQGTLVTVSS
VL: PYVLTQPPSVSVAPGQTARITCGGNNIGSKSVHWYQQKPGQAPVMVVYADRERPSGIPERLSGSNFGNTATLTISRVEAGDEADYYCQVWDSNNDHREVFGGGTKLTVLG
notes: VH/VL only
B5: binds (LN608403.1_frag); binds [6].

B6: TUCE1005 (antibody, V domains shown)
VH: QVQLQESGPGLVKPSETLSLTCTVSGGSISSYYWSWIRQPAGKGLEWIGRIYTSGSTNYNPSLKSRVTMSVDTSKNQFSLKMSSVTAADTAVYYCARGELLFDHWGQGTLVTVSS
VL: not shown
B6: binds [7].

B7: TBLA1006 (antibody, V domains shown)
VH: VQLVDSGGGLVQPGRSLRLSCAASGFVFDDYAMHWVRQVPGKGLEWVSGISWNSVSIGYADSVKGRFTISRDNAKNSLYLQMNSLRPEDAALYYCVKSFSAEYYYYYYGMDVWGQGTTVTVSS
VL: LYVLTQPPSVSVAPGTTAWISCGGNNIGIKSVHWYQQKPGQAPLLVISYDSDRPSVIPERFSVSNSGNTVTLTISRVEAGDEADYYCQVWDNGHSHWVFGGGTKLTVLG
notes: VH/VL only
B7: binds [8].

B8: TCER1006 (antibody, V domains shown)
VH: EVQLVQSGAEVKKPGESLKISCKGSGYSFTSFWIGWVRQMPGKGLEWMGIIFPADSDTRYSPSFQGQVIISVDKSISTAYLQWSSLKASDTAMYYCARRGVSGGSAWTYYNFFDPWGQGTLVTVAS
VL: PSVLTQPPSVSAAPGQKVTISCSGSSSNIDNNYVSWYQQLPGTAPKLLIYENNKRASGIPDRFSGSKSGTSATLGITGLQTGDEADYYCGTWDSSLSPGGVFGGGTKLTVLG
notes: VH/VL only
B8: binds [9].
